This is an account of results in PMC11440250 (iScience, 2024).

This series deals with the molecule itself. Briefly: cross-linking.

B1: Flag-PKM2 K207R (enzyme)
chain: not shown
On to B1, for which the binding result is listed as “binds”.
